According to the supplement of paper PMC6379048:

What was measured:
Assay in all cases: EC50 of free RNA motif oligo competing protein binding to immobilised probe
AGO1 = AGO1 (UniProt Q9UL18)
Method in brief: (§1)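 HEK293-FT lysate (2.5 mg protein/well) was treated with free RNA oligos (0 nM to 30 μM) for 1 h at 4°C, then with the same oligos on NHS-Sepharose beads for 30 min at 4°C. Bound proteins were quantified by label-free LC-MS/MS relative to the control. EC50 came from a four-parameter log-logistic fit, and Kd is EC50 times a protein-dependent depletion factor.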

CSNK2B = CSNK2B (UniProt P67870)
Sequence of CSNK2B (P67870 whole entry): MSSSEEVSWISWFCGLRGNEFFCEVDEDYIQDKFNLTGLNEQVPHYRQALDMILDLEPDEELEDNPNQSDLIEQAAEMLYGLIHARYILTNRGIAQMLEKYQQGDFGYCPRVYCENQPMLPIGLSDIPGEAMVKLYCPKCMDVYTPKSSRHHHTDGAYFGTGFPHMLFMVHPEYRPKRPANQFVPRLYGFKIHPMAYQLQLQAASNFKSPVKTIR
Method in brief: as §1

HNRNPF = molecular target: T1, HNRNPF (UniProt P52597)
T1 sequence: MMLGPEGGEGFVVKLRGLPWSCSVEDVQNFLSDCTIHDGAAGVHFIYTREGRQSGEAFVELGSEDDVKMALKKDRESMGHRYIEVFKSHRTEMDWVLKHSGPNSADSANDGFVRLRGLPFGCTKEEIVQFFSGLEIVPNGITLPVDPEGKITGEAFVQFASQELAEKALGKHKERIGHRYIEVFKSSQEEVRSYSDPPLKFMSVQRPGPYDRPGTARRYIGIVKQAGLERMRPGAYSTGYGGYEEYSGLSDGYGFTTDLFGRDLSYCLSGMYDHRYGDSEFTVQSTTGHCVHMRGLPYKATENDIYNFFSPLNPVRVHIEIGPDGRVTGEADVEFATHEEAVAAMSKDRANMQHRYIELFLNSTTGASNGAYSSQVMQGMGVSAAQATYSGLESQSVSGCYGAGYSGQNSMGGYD
Method in brief: as §1

TUBB2A = TUBB2A (UniProt Q13885)
Sequence of TUBB2A (Q13885 whole entry): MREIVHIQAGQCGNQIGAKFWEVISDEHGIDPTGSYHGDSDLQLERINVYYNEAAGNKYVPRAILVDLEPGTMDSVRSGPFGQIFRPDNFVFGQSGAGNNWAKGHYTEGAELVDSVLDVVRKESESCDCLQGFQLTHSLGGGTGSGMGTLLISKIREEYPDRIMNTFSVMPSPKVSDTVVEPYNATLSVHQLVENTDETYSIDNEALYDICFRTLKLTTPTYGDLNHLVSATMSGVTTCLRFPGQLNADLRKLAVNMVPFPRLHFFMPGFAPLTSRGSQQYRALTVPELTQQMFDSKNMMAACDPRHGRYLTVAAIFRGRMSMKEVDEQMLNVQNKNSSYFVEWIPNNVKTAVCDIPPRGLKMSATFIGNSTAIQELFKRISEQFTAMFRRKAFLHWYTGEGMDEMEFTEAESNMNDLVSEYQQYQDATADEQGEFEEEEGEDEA
Method in brief: as §1

HNRNPK = HNRNPK (UniProt P61978)
Method in brief: as §1

MRPL21 = MRPL21 (UniProt Q7Z2W9)
Method in brief: as §1

RPS28 = RPS28 (UniProt P62857)
Method in brief: as §1

CNBP = CNBP (UniProt P62633)
Sequence of CNBP (P62633 whole entry): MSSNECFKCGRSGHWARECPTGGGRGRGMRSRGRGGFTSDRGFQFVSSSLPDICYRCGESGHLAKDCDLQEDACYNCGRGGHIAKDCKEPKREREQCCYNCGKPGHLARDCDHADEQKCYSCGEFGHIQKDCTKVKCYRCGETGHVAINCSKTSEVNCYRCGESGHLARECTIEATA
Method in brief: as §1

FASTKD2 = molecular target: T2, FASTKD2 (UniProt Q9NYY8)
T2 sequence: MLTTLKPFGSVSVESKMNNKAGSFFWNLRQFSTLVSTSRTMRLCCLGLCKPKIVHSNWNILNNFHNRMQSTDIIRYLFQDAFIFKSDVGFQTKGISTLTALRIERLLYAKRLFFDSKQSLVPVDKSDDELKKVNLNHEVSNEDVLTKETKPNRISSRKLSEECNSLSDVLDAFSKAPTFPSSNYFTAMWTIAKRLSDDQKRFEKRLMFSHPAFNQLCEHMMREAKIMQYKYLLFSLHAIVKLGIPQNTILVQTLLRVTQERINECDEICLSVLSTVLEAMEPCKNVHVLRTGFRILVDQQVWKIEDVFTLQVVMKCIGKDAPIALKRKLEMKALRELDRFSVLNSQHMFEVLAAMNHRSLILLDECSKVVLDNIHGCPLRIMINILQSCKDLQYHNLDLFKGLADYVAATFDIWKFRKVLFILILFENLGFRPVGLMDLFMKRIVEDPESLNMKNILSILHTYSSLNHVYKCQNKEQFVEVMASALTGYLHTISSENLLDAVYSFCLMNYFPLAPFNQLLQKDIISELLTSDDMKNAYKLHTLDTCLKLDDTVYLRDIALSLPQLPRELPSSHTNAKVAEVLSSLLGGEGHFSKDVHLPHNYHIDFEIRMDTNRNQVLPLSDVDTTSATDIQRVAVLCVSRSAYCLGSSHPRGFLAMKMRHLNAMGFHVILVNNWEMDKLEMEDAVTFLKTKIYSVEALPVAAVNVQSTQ
Method in brief: as §1

PRPF3 = molecular target: T3, PRPF3 (UniProt O43395)
T3 sequence: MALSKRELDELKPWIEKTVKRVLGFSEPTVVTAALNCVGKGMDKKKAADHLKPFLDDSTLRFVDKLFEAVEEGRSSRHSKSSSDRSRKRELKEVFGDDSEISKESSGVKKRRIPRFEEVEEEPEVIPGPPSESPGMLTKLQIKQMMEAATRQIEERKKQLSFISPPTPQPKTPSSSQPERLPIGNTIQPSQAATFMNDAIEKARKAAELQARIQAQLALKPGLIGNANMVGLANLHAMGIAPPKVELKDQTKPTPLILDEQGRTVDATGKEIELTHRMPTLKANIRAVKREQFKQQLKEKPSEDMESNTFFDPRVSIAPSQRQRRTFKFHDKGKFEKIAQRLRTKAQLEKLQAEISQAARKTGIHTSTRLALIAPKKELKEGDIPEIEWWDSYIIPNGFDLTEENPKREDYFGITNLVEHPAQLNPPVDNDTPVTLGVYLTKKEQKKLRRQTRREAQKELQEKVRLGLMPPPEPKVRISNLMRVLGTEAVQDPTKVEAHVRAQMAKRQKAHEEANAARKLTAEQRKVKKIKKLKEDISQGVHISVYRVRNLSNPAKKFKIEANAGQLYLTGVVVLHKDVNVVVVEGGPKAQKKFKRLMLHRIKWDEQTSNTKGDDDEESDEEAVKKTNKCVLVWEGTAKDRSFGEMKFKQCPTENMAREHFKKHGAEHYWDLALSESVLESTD
Method in brief: as §1

TARDBP = TARDBP (UniProt Q13148)
Sequence of TARDBP (Q13148 whole entry): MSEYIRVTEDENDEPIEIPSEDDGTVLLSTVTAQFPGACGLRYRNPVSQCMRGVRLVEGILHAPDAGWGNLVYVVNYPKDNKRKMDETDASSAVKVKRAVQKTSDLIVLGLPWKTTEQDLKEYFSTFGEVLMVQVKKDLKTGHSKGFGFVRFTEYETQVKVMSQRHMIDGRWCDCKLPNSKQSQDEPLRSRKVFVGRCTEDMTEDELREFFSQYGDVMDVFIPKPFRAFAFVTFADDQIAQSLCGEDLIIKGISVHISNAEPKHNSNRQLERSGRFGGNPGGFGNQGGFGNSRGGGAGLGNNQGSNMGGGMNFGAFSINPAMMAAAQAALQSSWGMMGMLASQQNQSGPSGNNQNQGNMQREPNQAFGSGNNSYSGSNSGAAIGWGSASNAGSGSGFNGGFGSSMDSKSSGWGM
Method in brief: as §1

## AAUAAA
AGO1
  EC50: 0.379 µM
CSNK2B
  EC50: 3.56 µM
HNRNPF
  EC50: 6.12 µM
TUBB2A
  EC50: 1.09 µM

## CUGUCCU
HNRNPK
  EC50: 3.04 µM
MRPL21
  EC50: 0.151 µM
RPS28
  EC50: 0.212 µM

## UAUUUAU
CNBP
  EC50: 2.24 µM
FASTKD2
  EC50: 7.86 µM
PRPF3
  EC50: 7.13 µM
TARDBP
  EC50: 2.79 µM
